Source: patent US20240190958A1, “NOVEL ANTIBODY DRUG CONJUGATES WITH NOVEL NAPI2B ANTIBODIES, THERAPEUTIC METHODS AND USES THEREOF” (Tubulis GmbH, priority 2022, published 2024)

Target: recombinant human FcγRIIa/CD32 R131 (Lumit binding immunoassay) (human) (UniProt P12318)
Test: Lumit FcγRIIa (CD32) (R131) Binding Immunoassay (Promega), competition with Tracer-LgBiT for FcγR-SmBiT, luminescence, n=1; right panel

Chain of recombinant human FcγRIIa/CD32 R131 (Lumit binding immunoassay) (human) (P12318 34-217 H167R limits assumed): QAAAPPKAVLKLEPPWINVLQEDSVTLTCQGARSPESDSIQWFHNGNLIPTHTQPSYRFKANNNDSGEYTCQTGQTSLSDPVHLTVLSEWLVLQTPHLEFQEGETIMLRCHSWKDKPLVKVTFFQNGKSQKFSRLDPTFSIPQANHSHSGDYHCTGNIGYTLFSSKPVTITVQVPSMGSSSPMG

IC50 (read off the curve): 3 µg/mL
Substance: IgG1 positive control (standard of the Lumit FcγR Binding Immunoassays) (antibody)
